From PMC6179999

Key:
P27467 [1] = assay: AUC; AUC-FDS; conditioned medium of L cells secreting GFP-Wnt3a co-cultured with HEK293 cells secreting mouse sFRP2
P27467 [2] = assay: AUC; AUC-FDS of GFP-Wnt3a in culture medium with serum from which afamin was immuno-depleted before the cultivation; peak areas normalised by the whole area
P27467 [3] = assay: AUC; AUC-FDS of GFP-Wnt3a in culture medium with mock-treated serum; peak areas normalised by the whole area

GFP-tagged mouse Wnt3a secreted from stably transformed mouse L cells
relative area of HMW complex peaks, with sFRP2 (P27467 [1]): relative area of HMG peaks was decreased from 46.4 ± 0.8% to 33.6 ± 2.9% by the addition of sFRP2 | relative area of the HMW peaks, afamin pre-depleted serum (P27467 [2]): that of the HMW peaks was increased from 51.1 ± 4.8% to 69.6 ± 1.2% | relative area of the HMW peaks, mock-treated serum (P27467 [3]): that of the HMW peaks was increased from 51.1 ± 4.8% to 69.6 ± 1.2%
